In the supplement of paper PMC9170038:

Test system: MS2 coat protein
Test: apparent KD of MS2 coat protein; designed switch direction (-1 OFF switch, 1 ON switch): -1; higher = weaker reporter binding
How it was run: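 The reported apparent KD is a per-design median over clusters, from curve fits of normalised cluster fluorescence. Protein titrations used SNAP-549-labelled MS2 coat protein, doubled from 0.7 or 1.5 nM to 3 µM, in Tris-HCl pH 7.5 buffer with KCl, MgCl2, BSA, DTT, tRNA and Tween-20, with no input, 200 uM small-molecule ligand, or an oligonucleotide input. The RNA switches were transcribed on Illumina chips by stalled E. coli RNA polymerase.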

[1] = input ligand: microRNA oligo, concentration not stated
[2] = Eterna round: R95, input ligand: microRNA oligo, concentration not stated
[3] = Eterna round: R95, input ligand: FMN 200 uM
[4] = Eterna round: R95, input ligand: none

Sequence	apparent KD of MS2 coat protein (input ligand: FMN 200 uM)	apparent KD of MS2 coat protein [1]	apparent KD of MS2 coat protein (input ligand: none)	apparent KD of MS2 coat protein [2]	apparent KD of MS2 coat protein [3]	apparent KD of MS2 coat protein [4]
CUGCUGGAGUUUUGCUUUGGUCGUACAUGAGGAUCACCCAUGUAGGAUAUGGUAAAAUUCGCCUGCUAGAAGGAUAGAGUGGUC [salish99_ExNG3_r04_621] (Eterna round: R96, puzzle: Exclusion NG 3)	35.5 nM	23 nM	32.4 nM			
UCAUACGGUGAGGAUAUCUCCGCUAAAGUGUGUAGAGAAGGCGCUACAUGAGGAUCACCCAUGUUUAUGGGCAG [Ex-6 Malc#12] (Eterna round: R96, puzzle: Exclusion 6)		271 nM				
GGUGGACAUGAGGAUCACCCAUGUGAGGAUAUCGGCUGGCUACUGGCUGACGGCUGCUCGAGAAGGCGCAUUGU [Exclusion 1 V87] (puzzle: Exclusion 1)				38.4 nM		
CAGUACUGAGGAUAUACAUGAGGAUCACCCAUGUGUUCCAGCUAGGUAACUAGCAAAAGUAGAAGGCAGUACUG [salish99_ex3_r3_096x] (puzzle: Exclusion 3)				25.7 nM		
CAGUACUGAGGAUAUACAUGAGGAUCACCCAUGUGUUCCUGCUAGGAAACUAGCAAGGGUAGAAGGCAGUACUG [Salish 065 m4] (Eterna round: R97, puzzle: Exclusion 3)	132 nM		16.4 nM			
CAGCUGAAUGUGAGGAUAUGUCGAGCGAUAGCUCGAUAGAAGGCACAUGAGGAUCACCCAUGUCUCAACAGCUG [BmEx4/2-C4] (Eterna round: R97, puzzle: Brourd's mod of Exclusion 4)	349 nM		28.3 nM			
GUCAUGUAAGGAUAUCUUACAUGUGACUUCGGUCACUGUCAAGAGAAGGUACAUGAGGAUCACCCAUGUUCGAC [Ex4-3: 52] (Eterna round: R96, puzzle: Exclusion 4)	26.4 nM	19.2 nM	21 nM			
UUAUUAUAUGUAGGAUAUGCAUAUUAUUAUUAUGCAGAAGGACAUGAGGAUCACCCAUGUAUAUUGUUGUUGUAUAUUAUAUAU [Title] (Eterna round: R96, puzzle: Exclusion NG 1)		20.9 nM				
UACAAUGCUUUUGUAAGGUACAUGAGGAUCACCCAUGUCUCGCAAAGGCUUGAUUAUCACGUACGCGCUUGUCUUGU [Eternabot (L1) Solution 17] (Eterna round: R97, puzzle: Sensor, turn-off variant 1)	14.3 nM		12.2 nM			
ACAUGAGGAUCACCCAUGUGACCACGAUGGCUGAUGUAGAGCUAGGAUAUGAGUGAAUAUCUAUCUCAGAAGGAGCUUGACUGG [Deportation 49 - Jieux - Exclusion NG 3] (Eterna round: R96, puzzle: Exclusion NG 3)	25.7 nM	16.4 nM	26.2 nM			
UUUAAUUUUUUUUUUUUACAAGCUUUUUGCUCGUCUUAUACAUGAGGAUCACCCAUGUGGAUGGGAAAUGAAUUAUC [JMF 97] (puzzle: Sensor v3, turn-off variant 2)				115 nM	18.6 nM	19.7 nM
GAUGAGGGAGUGAGGAUAUAUACCGGCUCACCGGAGUAGAAGGCACAUGAGGAUCACCCAUGUGACCUUAACCU [Eternabot (L2) Solution 92] (Eterna round: R97, puzzle: Brourd's mod of Exclusion 4)	15.3 nM		14.1 nM			
GGUGGGCUAGGAUAUGCUUUGGGUGGGCAUUCCUUCGAUAAACUUGAGGAUCACCCAAGUAGAAGGAGCUUGCC [salish99_ex2_r4_023] (Eterna round: R97, puzzle: Exclusion 2)	21.8 nM		35.4 nM			
GGUGCACAUGAGGAUCACCCAUGUCAGGAUAUGUUACCACGUUACGAUCGAGUGACGAGCAGAAGGGACUGCAU [Eternabot (L2) Solution 68] (Eterna round: R97, puzzle: Exclusion 1)	39.4 nM		29.6 nM			
CUCCUCAUGGCGCCUAAACACAUGAGGAUCACCCAUGUACAGGCCUUUUGCCGUCUUAUAAUAAAACCGAGGAUGCG [Lainxezabe] (puzzle: Sensor v3, turn-off variant 1)				223 nM	29.6 nM	26.8 nM
AGUAACUAUCACGAAAGUGAUAGUUACAGCAAGUGAUAAACAUGAGGAUCACCCAUGUCCUCAUUUGCUCGUCUUAU [Sensor 3 - 12] (Eterna round: R96, puzzle: Sensor v3, turn-off variant 2)	15 nM	386 nM	17.2 nM			
ACAUGUCAUCGAGGAUAUUGGACACAUGAGGAUCACCCAUGUACCCGGAGGCUUUACUAUGAGUUCGAGAAGGCGAUGUACAUG [Ex NG2 #73] (Eterna round: R96, puzzle: Exclusion NG 2)	83.7 nM	42.4 nM	54.6 nM			

Sequence	apparent KD of MS2 coat protein (input ligand: FMN 200 uM)	apparent KD of MS2 coat protein [1]	apparent KD of MS2 coat protein (input ligand: none)	apparent KD of MS2 coat protein [2]	apparent KD of MS2 coat protein [3]	apparent KD of MS2 coat protein [4]
GCAUUGAGUGUGAGGAUAUGCUGGUCGUAAGAUCAGCAGAAGGCACAUGAGGAUCACCCAUGUGAAAACAAUGC [Mat - Exclusion 4 - JL Mod - D67] (puzzle: Brourd's mod of Exclusion 4)				23 nM	125 nM	23.4 nM
GAUUGACAUGAGGAUCACCCAUGUGAGGAUAUCGGCUGGACCGUGUUGGCUUGCUUUCCGAGAAGGCGCAUAGG [Exclusion 1 V50] (puzzle: Exclusion 1)				36.9 nM	81.7 nM	45.9 nM
GCAGCAUAGUCGGAAUACGACAUACAUGAGGAUCACCCAUGUCAGGAUAUGGUCUGGAUUACAGGCCAGAAGGGACGAAGCUGC [Eli exng3 - 006] (Eterna round: R96, puzzle: Exclusion NG 3)	18.4 nM	17.6 nM	21.5 nM			
CUCCCUCGGGUUAGGAUAUGCUACUGGCUUCAGAUGCAGAAGGAACAUGAGGAUCACCCAUGUACCAAAUAAAA [BmEX4 B.15] (Eterna round: R97, puzzle: Brourd's mod of Exclusion 4)	35 nM		14.5 nM			
AGCCUGCAAGUAAGGAUAUGAAGUUAAAAGAACGGUCAGAAGGUACUUGAGGAUCACCCAAGUACGGGAGCGUG [Teuscema] (Eterna round: R97, puzzle: Brourd's mod of Exclusion 4)	41 nM		16.3 nM			
UACGAACUAGGAUAUGCAAAGGGCUCGCUUUCCUUCGAUAAACUUGAGGAUCACCCAAGUAGAAGGAGUUUGUA [Mod 39 - Jieux - Exclusion 2] (Eterna round: R97, puzzle: Exclusion 2)	30.2 nM		11.4 nM			
UAUUAGCAAGCAAAUGGGUACAUGAGGAUCACCCAUGUGCUCGUCUUAUAAGGUACUGUGACGAAAGUCCCGGUACC [mod--Eli6] (Eterna round: R97, puzzle: Sensor, turn-off variant 1)	28.9 nM		21.9 nM			
GCUCAGUAAGGAUAUUGUUUAGGAGCUAUAGGCGUAGUUAACAAGAAGGUACAUGAGGAUCACCCAUGUCCAUC [Eternabot (L2) Solution 36] (Eterna round: R97, puzzle: Exclusion 4)	17.7 nM		15.1 nM			
CUUUUGUGAGGAUAUUAGUAGUAAAUAAAUAUAAUUACUACUGAGAAGGCACAUGAGGAUCACCCAUGUUCCUC [salish99_ex4_r3_058] (puzzle: Exclusion 4)				35.5 nM		
UGAAUGUGAGGAUAUGGUGAGUAGUGCCUGAGCGCUGCUCACCAGAAGGCACAUGAGGAUCACCCAUGUACUUG [JL-ex4-2.07 denovo] (puzzle: Exclusion 4)				49.4 nM		
UUGCUCCCUUAGUACUCUACAAGUUUUUUGUUCGUUUUAACAUGAGGAUCACCCAUGUCUAGUGGAUCUGAUCGGGU [JL ViennaUCT Isreen mod 5] (puzzle: Sensor v3, turn-off variant 2)				336 nM	172 nM	178 nM
CUCAUGUGAGGAUAUCACCCAAGAGUGAGCAAUCACUAUCAUGAGAAGGCACAUGAGGAUCACCCAUGUUAAAA [Xesoer] (Eterna round: R97, puzzle: Exclusion 4)	11.5 nM		57.7 nM			
UGUGUGUGAGGAUAUACAAUGCGCGCGCGAAAGUGUGUGUUACAUGAGGAUCACCCAUGUAGAAGGCGCGCGCG [-31, -27.8 kcal A 24%, 6,6bis] (Eterna round: R97, puzzle: Exclusion 2)	15.7 nM		17 nM			
AAGGAUAGAGGAUAUACAUAGAUACAGAUUCAUGUAGUCCUACAUGAGGAUCACCCAUGUAGAAGGCUAUCCUA [Fiskers Ex 2 - 12] (Eterna round: R96, puzzle: Exclusion 2)	103 nM	14.3 nM	18.7 nM			
UAUUAUCAAGCUAGAUCCCACAUGAGGAUCACCCAUGUGCUCGUCUUAUUUCCGGAAUUAUUGGGCUCUCGUCUUUU [JR_STOV1_Sub092] (Eterna round: R97, puzzle: Sensor, turn-off variant 1)	235 nM		238 nM			
GGUACUAACACGAAAGUGUUAGUACAAUAAGCUAGUGGAACAUGAGGAUCACCCAUGUCCUCAUUAGCUCGUCUUAG [Mat - Sensor v3 - Turn-off var 2 - D37] (puzzle: Sensor v3, turn-off variant 2)				37.6 nM	14.7 nM	12.7 nM
GAGAAGGUAGGAUAUACGAAUAAAUAGGGUAGGAAGAAGACACAUGAGGAUCACCCAUGUAGAAGGACCAAGAG [Mat - Exclusion 2 - Mod of my Tesla design - D36] (puzzle: Exclusion 2)				14.6 nM	29.3 nM	17.8 nM
